# Molecular target: mTFP1
# Test: SDS-PAGE with in-gel fluorescence; whole-cell extract of C. reinhardtii transformants in SDS sample buffer without β-mercaptoethanol, 40°C for 5 min; 15% resolving gel; gel washed in water to refold the fluorescent proteins; imaged with bandpass filters
substance,measurement,value
mTFP1,stoichiometry N,2
